Measurements reported in patent publication US12583888B2, “Bi-specific extracellular matrix binding peptides and methods of use thereof” (University of Tartu, priority 2019, dated 2026).

How the values were obtained:
P13 tumor = settings: i.v. equimolar mix, 2 h circulation
From the text: (§1) In vivo play-off was used to evaluate systemic homing of peptide phage to xenograft tumor models. The in vitro selected candidate TNC-C binding peptides, phages displaying published tumor homing peptides, and control peptides were amplified and purified by precipitation with PEG-8000 (Sigma-Aldrich, St. Louis, MO, USA), followed by CsCl2 gradient ultracentrifugation and dialysis. The amplified phage peptides were pooled in equimolar quantities, and injected intravenously (final 1×10^10 pfu in 200 μl PBS) in tumor-bearing mice for two hour circulation, after which mice were anesthetized with 2.5% avertin and intracardially perfused with DMEM intracardially. The tumors and organs were collected in lysogeny broth (LB)+1% NP40, and the tissues were homogenized using a hand-held homogenizer for phage peptide rescue. Phages in the tissue lysates were amplified in E. coli, purified by precipitation with PEG-8000 and DNA was extracted using a DNA extraction kit (High Pure PCR Template Preparation Kit; Roche, Basel, Switzerland). Next-generation sequencing of phage genomic DNA evaluated the representation of each phage in input mixture, in tumor and control organs with Ion Torrent system (Thermo Fisher Scientific, Waltham, MA, USA). The next generation deep sequencing of phage library was done using Ion Torrent according to the manufacturer's protocol with slight modification. The FASTQ data from Ion Torrent was processed by a custom python script that identified the barcodes, constant flanking residues, and extracted the reads of the correct length.

P3 stem cell-like tumor = settings: i.v. equimolar mix, 2 h circulation
From the text: as §1

[1] = test system: PC3 prostate carcinoma xenografts; settings: i.v. equimolar mix, 2 h circulation
From the text: as §1

U87-MG glioblastoma = settings: i.v. equimolar mix, 2 h circulation
From the text: as §1

WT-GBM tumor = settings: i.v. equimolar mix, 2 h circulation
From the text: as §1

normal brain = settings: i.v. equimolar mix, 2 h circulation
From the text: as §1

FN-EDB and TNC-C [2] = assay: Peptide-phage binding to FN-EDB- and TNC-C-coated magnetic beads; settings: phage-displayed peptide
Protocol: (§2) To identify bispecific peptides that interact with both TNC-C and FN-EDB, cross screens were performed on both targets. During the first round of selection, microtiter plates coated with 20 μg/ml recombinant purified TNC-C were blocked with PBS containing 1% bovine serum albumin (BSA), followed by incubation with 5×10^8 pfu of phages in PBS at 4° C. overnight, by washes to remove background, and by phage rescue and amplification in BLT5403 strain of E. coli (Novagen, EMD Biosciences, MA, USA) (Teesalu et al., Methods Enzymol. 503:35-56 (2012)). The following rounds of biopanning were carried on Ni-NTA Magnetic Agarose Beads (QIAGEN, Hilden, Germany) coated with hexahistidine-tagged FN-EDB (3 μg/μl beads) at room temperature. After 5 rounds of selection, a set of random clones was sequenced, and individual peptide-phage clones and control (G7 peptide-displaying or insertless) phages were incubated with FN-EDB and TNC-C-coated magnetic beads. RPARPAR phage (SEQ ID NO:5) and His-tagged NRP-1 b1b2 domain were used as positive control (Teesalu et al., Proc. Natl. Acad. Sci. U.S.A 106:16157-62 (2009)). To address the specificity of the peptide phage binding to the FN-EDB and TNC-C, the protein-coated beads were pre-incubated with 20 μg/ml blocking rabbit polyclonal antibodies.

[3] = test system: Neuropilin 1 b1b2 domain (NRP1) and Fn-EDB; assay: PL2 phage binding to purified NRP1 together with Fn-EDB
Protocol: For cell-free binding studies using individually amplified phage clones; phage was incubated with Fn-EDB coated magnetic beads as described above. RPARPAR phage on NRP-1-coated beads was used as a positive control (Teesalu et al., 2009), Nucleolin (NCL) and Tenascin C-C domain (TNC-C) were used as negative control. Phage clones displaying heptaglycine peptide (GGGGGGG, G7 (SEQ ID NO:20)) or insert less phage clones were used as negative controls.

NRP-1 b1b2 domain = molecular target: T1, NRP-1 b1b2 domain (Homo sapiens, UniProt O14786); assay: PL1 phage binding to recombinant control protein NRP-1; settings: phage-displayed peptide
T1 construct: His-tagged NRP-1 b1b2 domain were used as positive control; His tag; made in house
T1 sequence (O14786 273-586 limits assumed): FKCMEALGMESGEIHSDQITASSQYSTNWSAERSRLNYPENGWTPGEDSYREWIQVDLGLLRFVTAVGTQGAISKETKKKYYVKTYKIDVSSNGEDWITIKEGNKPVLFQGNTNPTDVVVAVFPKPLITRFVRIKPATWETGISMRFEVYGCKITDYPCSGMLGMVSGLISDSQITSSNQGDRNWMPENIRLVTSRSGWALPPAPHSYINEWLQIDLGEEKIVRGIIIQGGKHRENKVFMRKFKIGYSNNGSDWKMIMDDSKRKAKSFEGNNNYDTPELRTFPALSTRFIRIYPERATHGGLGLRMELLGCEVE
Protocol: as §2

FN-EDB and TNC-C [4] = assay: Cell-free peptide binding assay (immobilized FAM-peptide, His-tagged protein, ELISA)
Protocol: The FAM-labeled peptides were coated on ELISA plates (Nunc Maxisorp, Thermo Fisher Scientific Inc., MA, USA), blocked with PBS containing 1% BSA, and incubated with recombinant proteins at 2 μg/well in PBS for 6 h. The protein was detected using an anti-His-tag antibody, followed by horseradish peroxidase-conjugated secondary antibody, chromogenic reaction, and measurement of absorbance at 450 nm with a microplate reader (Tecan Austria GmbH, Gradig, Austria).

| Substance | Representation of phage in tumors (fold G7 control phage), P13 (P13 tumor) | Representation of phage in tumors (fold G7 control phage), P3 SCL (P3 stem cell-like tumor) | Representation of phage in tumors (fold G7 control phage), PC3 [1] | Representation of phage in tumors (fold G7 control phage), U87-MG (U87-MG glioblastoma) | Representation of phage in tumors (fold G7 control phage), WT-GBM (WT-GBM tumor) | Representation of phage in control brain tissue (fold G7 control phage), Norm. brain (normal brain) | Binding Specificity (FN-EDB and TNC-C [2]) | binding of phage-displayed peptide to Fn-EDB and NRP1 [3] | interaction of phage with recombinant control protein NRP-1 (NRP-1 b1b2 domain) | binding to FN-EDB and TNC-C on phage and as synthetic FAM-labeled peptide (FN-EDB and TNC-C [4]) |
| --- | --- | --- | --- | --- | --- | --- | --- | --- | --- | --- |
| AGVGRLRRAKLAAALE | 0.9 fold | 0.9 fold | 1.4 fold | 1.0 fold | 2.3 fold | 0.2 fold | – | – | – | – |
| PPRRGLIKLKTSSNTKENSVVASLRP [PL5] | – | – | – | – | – | – | TNC-C + FN-EDB | – | – | – |
| CAGRGRLVRC | 0.4 fold | 0.2 fold | 0.4 fold | 0.1 fold | 0.9 fold | 0.0 fold | – | – | – | – |
| TSKQNSR [PL2] | – | – | – | – | – | – | – | bind specifically to both Fn-EDB and NRP1 | – | – |
| CRGVLRRAKLAAALE | 0.4 fold | 0.4 fold | 0.9 fold | 0.7 fold | 1.6 fold | 0.1 fold | – | – | – | – |
| RGRLVRA | 0.4 fold | 0.3 fold | 1.8 fold | 0.8 fold | 3 fold | 0.1 fold | – | – | – | – |
| PPRRGLIKLKTS [PL1] | – | – | – | – | – | – | TNC-C + FN-EDB | – | did not interact | retained the ability to bind to both FN-EDB and TNC-C |
| RRLVRVA | 0.4 fold | 0.3 fold | 0.9 fold | 0.6 fold | 1.4 fold | 0.1 fold | – | – | – | – |
| AGRGRLVRAKLAAALE | 0.1 fold | 0.4 fold | 0.3 fold | 0.2 fold | 23.9 fold | 0.0 fold | – | – | – | – |
| CSRRGILRAKPAAALE | 0.8 fold | 0.9 fold | 1.2 fold | 1.1 fold | 1.5 fold | 0.1 fold | – | – | – | – |
| VGRVRFSRKLAAALE | 0.5 fold | 0.4 fold | 1.2 fold | 0.7 fold | 2.5 fold | 0.1 fold | – | – | – | – |
| GGGGGGG [reference compound] | 1.0 fold | 1.0 fold | 1.0 fold | 1.0 fold | 1.0 fold | 1 fold | – | – | – | – |
| RGRLVRAK | 0.1 fold | 0.3 fold | 3.0 fold | 0.5 fold | 23.8 fold | 0.2 fold | – | – | – | – |
| GRLTRVR | 0.5 fold | 0.5 fold | 0.9 fold | 0.9 fold | 1.9 fold | 0.1 fold | – | – | – | – |
